Test results as given in article PMC6171237, “UBN1/2 of HIRA complex is responsible for recognition and deposition of H3.3 at cis-regulatory elements of genes in mouse ES cells” (BMC Biology, 2018).

Biological target: T1, (H3.3-H4)2 tetramers (UniProt P84243 1-136; P62805 1-103)
T1 construct: Histone H3.3; Histone H4; also called H3.3-H4 tetramer; copies: 2 + 2
Experiment: pull-down; GST fusion proteins immobilized on Glutathione Sepharose 4 Fast Flow, histone tetramers added in 20 mM HEPES-HCl pH 7.9, 500 mM NaCl, 1 mM EDTA, 5 mM 2-mercaptoethanol, 0.1% Nonidet P-40, overnight at 4 °C; Coomassie staining
Conditions: both partners purified

| binding result | Binder |
| --- | --- |
| binds | GST-UBN1 (1–213) (domain or fragment, source: E. coli, purified by GST tag) MSEPHRVQFTSLPGSLNPAFLKKSRKEEAGAGEQHQDCEPAAAAVRITLTLFEPDHKRCPEFFYPELVKNIRGKVKGLQPGDKKKDLSDPFNDEEKERHKVEALARKFEEKYGGKKRRKDRIQDLIDMGYGYDESDSFIDNSEAYDELVPASLTTKYGGFYINSGTLQFRQASESEDDFIKEKKKKSPKKRKLKEGGEKIKKKKKDDTYDKEK |
| binds | GST-UBN2 (109–291) (domain or fragment, UBN2, human, residues 109-291, contains the HRD domain; also called UBN2 (aa109-291); GST-UBN2-(aa109-291); source: E. coli, purified by GST tag) PRESASRAEQPPRPPRETVRLELVLKDPTDESCVEFSYPELLLCGEQRKKLIHTEDPFNDEHQERQEVEMLAKKFEMKYGGKPRKHRKDRLQDLIDIGFGYDETDPFIDNSEAYDELVPASLTTKYGGFYINTGTLQFRQASDTEEDDITDNQKHKPPKVPKIKEDDIEMKKRKRKEEGEKEK |
